According to IntAct's records for PubMed 22178926:

B1: Integrin beta-3 (Homo sapiens), P05106 (parent)
chain: MRARPRPRPLWATVLALGALAGVGVGGPNICTTRGVSSCQQCLAVSPMCAWCSDEALPLGSPRCDLKENLLKDNCAPESIEFPVSEARVLEDRPLSDKGSGDSSQVTQVSPQRIALRLRPDDSKNFSIQVRQVEDYPVDIYYLMDLSYSMKDDLWSIQNLGTKLATQMRKLTSNLRIGFGAFVDKPVSPYMYISPPEALENPCYDMKTTCLPMFGYKHVLTLTDQVTRFNEEVKKQSVSRNRDAPEGGFDAIMQATVCDEKIGWRNDASHLLVFTTDAKTHIALDGRLAGIVQPNDGQCHVGSDNHYSASTTMDYPSLGLMTEKLSQKNINLIFAVTENVVNLYQNYSELIPGTTVGVLSMDSSNVLQLIVDAYGKIRSKVELEVRDLPEELSLSFNATCLNNEVIPGLKSCMGLKIGDTVSFSIEAKVRGCPQEKEKSFTIKPVGFKDSLIVQVTFDCDCACQAQAEPNSHRCNNGNGTFECGVCRCGPGWLGSQCECSEEDYRPSQQDECSPREGQPVCSQRGECLCGQCVCHSSDFGKITGKYCECDDFSCVRYKGEMCSGHGQCSCGDCLCDSDWTGYYCNCTTRTDTCMSSNGLLCSGRGKCECGSCVCIQPGSYGDTCEKCPTCPDACTFKKECVECKKFDRGALHDENTCNRYCRDEIESVKELKDTGKDAVNCTYKNEDDCVVRFQYYEDSSGKSILYVVEEPECPKGPDILVVLLSVMGAILLIGLAALLIWKLLITIHDRKEFAKFEEERARAKWDTANNPLYKEATSTFTNITYRGT

Variants of: B1
Details: with ITGA2B

Effect of a mutation on the interaction, disrupting interaction strength:
K742A
K742L
K742S
K742E
K742C
